Bounds are passed on as bounds.

For assay [1], the target named is human proinsulin (human) (UniProt P01308). As to the kind of experiment: sandwich immunoassay, two-step, against C-peptide calibration; proinsulin 400 ng/ml; 9103 on particles, labeled antibody 9101.
Assay [2] has the same target. As to the kind of experiment: sandwich immunoassay, one-step, against C-peptide calibration; proinsulin 200 ng/ml; 9103 on particles, labeled antibody 9101.
In assay [3] the target is modified C-peptide (human C-peptide having Arg-Arg bound to its N-terminal and Lys-Arg bound to its C-terminal) (human). In words: sandwich immunoassay, one-step, against C-peptide calibration; modified C-peptide 5 ng/ml; 9103 on particles, labeled antibody 9101.
Sequence of modified C-peptide (human C-peptide having Arg-Arg bound to its N-terminal and Lys-Arg bound to its C-terminal) (human) (peptide, as listed by the source): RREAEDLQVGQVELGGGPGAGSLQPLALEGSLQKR
The target in assay [4] is human proinsulin (human) (UniProt P01308). As to the kind of experiment: sandwich immunoassay, two-step, against C-peptide calibration; proinsulin 200 ng/ml; 9103 on particles, labeled antibody PEP-001.
Assay [5] has the same target. As to the kind of experiment: sandwich immunoassay, two-step, against C-peptide calibration; proinsulin 200 ng/ml; 9103 on particles, labeled antibody 9101.
Assay [6] deals with human C-peptide (human). As to the kind of experiment: sandwich immunoassay, two-step; 9103 on particles, labeled antibody 9101.
Sequence of human C-peptide (human) (peptide, as listed by the source): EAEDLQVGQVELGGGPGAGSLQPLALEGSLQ
Assay [7] addresses human proinsulin (human) (UniProt P01308). In words: sandwich immunoassay, one-step, against C-peptide calibration; proinsulin 50 ng/ml; 9103 on particles, labeled antibody 9101.
Assay [8] has the same target. In words: sandwich immunoassay, two-step, against C-peptide calibration; proinsulin 50 ng/ml; 9103 on particles, labeled antibody PEP-001.
The target is the same in assay [9]. As to the kind of experiment: sandwich immunoassay, one-step, against C-peptide calibration; proinsulin 200 ng/ml; 9103 on particles, labeled antibody PEP-001.
Assay [10] shares this target. In words: sandwich immunoassay, one-step, against C-peptide calibration; proinsulin 50 ng/ml; 9103 on particles, labeled antibody PEP-001.
The target in assay [11] is human C-peptide (human). In words: sandwich immunoassay, two-step; 9103 on particles, labeled antibody PEP-001.
Assay [12] has as its target modified C-peptide (human C-peptide having Arg-Arg bound to its N-terminal and Lys-Arg bound to its C-terminal) (human). In words: sandwich immunoassay, two-step, against C-peptide calibration; modified C-peptide 5 ng/ml; 9103 on particles, labeled antibody PEP-001.
Assay [13] has as its target human proinsulin (human) (UniProt P01308). In words: sandwich immunoassay, two-step, against C-peptide calibration; proinsulin 50 ng/ml; 9103 on particles, labeled antibody 9101.
The target is the same in assay [14]. As to the kind of experiment: sandwich immunoassay, two-step, against C-peptide calibration; proinsulin 400 ng/ml; 9103 on particles, labeled antibody PEP-001.
For assay [15], the target named is human C-peptide (human). In words: sandwich immunoassay, one-step; 9103 on particles, labeled antibody 9101.
Assay [16] deals with human proinsulin (human) (UniProt P01308). In words: sandwich immunoassay, one-step, against C-peptide calibration; proinsulin 400 ng/ml; 9103 on particles, labeled antibody 9101.
For assay [17], the target named is human C-peptide (human). In words: sandwich immunoassay, one-step; 9103 on particles, labeled antibody PEP-001.
In assay [18] the target is modified C-peptide (human C-peptide having Arg-Arg bound to its N-terminal and Lys-Arg bound to its C-terminal) (human). As to the kind of experiment: sandwich immunoassay, one-step, against C-peptide calibration; modified C-peptide 5 ng/ml; 9103 on particles, labeled antibody PEP-001.
The target in assay [19] is human proinsulin (human) (UniProt P01308). As to the kind of experiment: sandwich immunoassay, one-step, against C-peptide calibration; proinsulin 400 ng/ml; 9103 on particles, labeled antibody PEP-001.
The target of assay [20] is modified C-peptide (human C-peptide having Arg-Arg bound to its N-terminal and Lys-Arg bound to its C-terminal) (human). As to the kind of experiment: sandwich immunoassay, two-step, against C-peptide calibration; modified C-peptide 5 ng/ml; 9103 on particles, labeled antibody 9101.
Assay [21] concerns the target human C-peptide (human). In words: sandwich immunoassay, two-step; PEP-001 on particles, labeled antibody CPT-3F-11.
Assay [22] concerns the target human C-peptide (human). In words: sandwich immunoassay, one-step; PEP-001 on particles, labeled antibody CPT-3F-11.
The target of assay [23] is human proinsulin (human) (UniProt P01308). In words: sandwich immunoassay, one-step, against C-peptide calibration; proinsulin 50 ng/ml; PEP-001 on particles, labeled antibody CPT-3-F11.
Assay [24] addresses modified C-peptide (human C-peptide having Arg-Arg bound to its N-terminal and Lys-Arg bound to its C-terminal) (human). In words: sandwich immunoassay, two-step, against C-peptide calibration; modified C-peptide 5 ng/ml; PEP-001 on particles, labeled antibody 9103.
Assay [25] deals with human C-peptide (human). As to the kind of experiment: sandwich immunoassay, two-step; PEP-001 on particles, labeled antibody 9103.
For assay [26], the target named is human proinsulin (human) (UniProt P01308). As to the kind of experiment: sandwich immunoassay, two-step, against C-peptide calibration; proinsulin 50 ng/ml; PEP-001 on particles, labeled antibody CPT-3-F11.
The target in assay [27] is modified C-peptide (human C-peptide having Arg-Arg bound to its N-terminal and Lys-Arg bound to its C-terminal) (human). In words: sandwich immunoassay, one-step, against C-peptide calibration; modified C-peptide 5 ng/ml; PEP-001 on particles, labeled antibody CPT-3F-11.
The target in assay [28] is human proinsulin (human) (UniProt P01308). As to the kind of experiment: sandwich immunoassay, two-step, against C-peptide calibration; proinsulin 200 ng/ml; PEP-001 on particles, labeled antibody CPT-3-F11.
For assay [29] the target is unchanged. In words: sandwich immunoassay, two-step, against C-peptide calibration; proinsulin 50 ng/ml; PEP-001 on particles, labeled antibody 9103.
For assay [30], the target named is modified C-peptide (human C-peptide having Arg-Arg bound to its N-terminal and Lys-Arg bound to its C-terminal) (human). As to the kind of experiment: sandwich immunoassay, two-step, against C-peptide calibration; modified C-peptide 5 ng/ml; PEP-001 on particles, labeled antibody CPT-3F-11.
The target of assay [31] is human proinsulin (human) (UniProt P01308). As to the kind of experiment: sandwich immunoassay, one-step, against C-peptide calibration; proinsulin 50 ng/ml; PEP-001 on particles, labeled antibody 9103.
Assay [32] has the same target. As to the kind of experiment: sandwich immunoassay, one-step, against C-peptide calibration; proinsulin 400 ng/ml; PEP-001 on particles, labeled antibody CPT-3-F11.
The target of assay [33] is modified C-peptide (human C-peptide having Arg-Arg bound to its N-terminal and Lys-Arg bound to its C-terminal) (human). As to the kind of experiment: sandwich immunoassay, one-step, against C-peptide calibration; modified C-peptide 5 ng/ml; PEP-001 on particles, labeled antibody 9103.
Assay [34] deals with human proinsulin (human) (UniProt P01308). In words: sandwich immunoassay, one-step, against C-peptide calibration; proinsulin 200 ng/ml; PEP-001 on particles, labeled antibody CPT-3-F11.
Assay [35] has the same target. As to the kind of experiment: sandwich immunoassay, two-step, against C-peptide calibration; proinsulin 400 ng/ml; PEP-001 on particles, labeled antibody 9103.
For assay [36] the target is unchanged. In words: sandwich immunoassay, one-step, against C-peptide calibration; proinsulin 400 ng/ml; PEP-001 on particles, labeled antibody 9103.
Assay [37] has the same target. As to the kind of experiment: sandwich immunoassay, one-step, against C-peptide calibration; proinsulin 200 ng/ml; PEP-001 on particles, labeled antibody 9103.
Assay [38] deals with human C-peptide (human). As to the kind of experiment: sandwich immunoassay, one-step; PEP-001 on particles, labeled antibody 9103.
In assay [39] the target is human proinsulin (human) (UniProt P01308). As to the kind of experiment: sandwich immunoassay, two-step, against C-peptide calibration; proinsulin 400 ng/ml; PEP-001 on particles, labeled antibody CPT-3-F11.
Assay [40] shares this target. In words: sandwich immunoassay, two-step, against C-peptide calibration; proinsulin 200 ng/ml; PEP-001 on particles, labeled antibody 9103.

Sequence of UniProt P01308 (P01308 25-110): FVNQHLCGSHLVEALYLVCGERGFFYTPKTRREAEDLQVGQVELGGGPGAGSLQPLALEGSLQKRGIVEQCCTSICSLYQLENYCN

On to “anti-human C-peptide monoclonal antibody 9103 (Medix Biochemica)”, for which the Cross-reactivity (%) to Human Proinsulin in the assay with human proinsulin (human) [1] was 6.8%; with human proinsulin (human) [2], 5.8%; with human proinsulin (human) [4], greater than 30%; in the assay with human proinsulin (human) [5] it was 4.4%; with human proinsulin (human) [7], 3.2%; with human proinsulin (human) [8], 65.2%. The Cross-reactivity (%) to Human Proinsulin in the assay with human proinsulin (human) [9] was greater than 30%; with human proinsulin (human) [10], 58%; in the assay with human proinsulin (human) [13], 2.3%; with human proinsulin (human) [14], greater than 15%; with human proinsulin (human) [16] it was 6.9%; in the assay with human proinsulin (human) [19] it was greater than 15%. In addition, the Cross-reactivity (%) to Modified C-peptide in [3] is less than 0.5%; in [12], 38.6%; in assay [18], 58.2%; in assay [20], less than 0.5%. The 2S/N value was found to be 0.167 ng/mL with human C-peptide (human) [6], 0.018 ng/mL with human C-peptide (human) [11], 0.117 ng/mL in the assay with human C-peptide (human) [15] and 0.009 ng/mL with human C-peptide (human) [17].

Regarding “anti-human C-peptide monoclonal antibody PEP-001 (Dako)”, the 2S/N value worked out at 0.271 ng/mL with human C-peptide (human) [21], 0.191 ng/mL in the assay with human C-peptide (human) [22], 0.591 ng/mL in the assay with human C-peptide (human) [25] and 0.781 ng/mL in the assay with human C-peptide (human) [38]. The Cross-reactivity (%) to Human Proinsulin in the assay with human proinsulin (human) [23] is greater than 120%; with human proinsulin (human) [26], greater than 120%; with human proinsulin (human) [28], greater than 30%; in the assay with human proinsulin (human) [29], greater than 120%; with human proinsulin (human) [31], greater than 120%; in the assay with human proinsulin (human) [32], greater than 15%. In addition, the Cross-reactivity (%) to Human Proinsulin with human proinsulin (human) [34] was greater than 30%; in the assay with human proinsulin (human) [35], greater than 15%; in the assay with human proinsulin (human) [36], greater than 15%; with human proinsulin (human) [37] it was greater than 30%; with human proinsulin (human) [39], greater than 15%; with human proinsulin (human) [40] it was greater than 30%. Also, the Cross-reactivity (%) to Modified C-peptide in [24] was 38.3%; in assay [27] it was 98.5%; in [30] it was 80%; in assay [33] it was 35%.

The values above are taken from patent US6534281.
